B1: R218 IgG (antibody, V domains shown)
VH: EVQLQQSGAELVKPGASVKLSCTASGFNIKDNYMHWVKQRPEQGLEWIGRIDPANGNTKYDPKFQGKATITADTSSNTAYLQLSSLTSEDTAVYYCARHYDGYFLYYFEYWGQGTTLTVSS
VL: DIQMTQTTSSLSASLGDRVTITCRAGQDISNYLNWYQQKPDGTVKLLIYYTSRLHSGVPSRFSGSGSGTDYSLTISNLEQEDIATYFCQQGSTFPWTFGGGTKLEIK
notes: mouse IgG1 heavy chain; its Fab part as the heavy chain of m5 (deposited structure); as the light chain of m5; IgG1 mouse monoclonal antibody; also called R218 antibody
B2: R217 IgG (antibody, V domains shown)
VH: VQLQQSGPELVKPGTSVKISCKTSGYTFTENTMHWVKQSHGESLDWVGGINTDNGGTTYSQKFKGKATLTVDKSSSTAYMELRSLTSEDSAVYYCSTGYDAMDYWGQGTSVTVSS
VL: NIVLTQSPASLAVSLGQRATISCRASKGVDSYGNSFMHWYQQRPGQPPKLLIYLASHLESGVPARFSGSGSRTDFTLTIDPVEADDAATYYCQQNNEDPFTFGSGTKLEIK
notes: mouse IgG1 heavy chain; its Fab part as the heavy chain of m3 (deposited structure); as the light chain of m3; IgG1 mouse monoclonal antibody; also called R217 antibody

Target: T1, wildtype PfEBA-175 RII expressed on the surface of HEK293T cells (Plasmodium falciparum, strain not …, UniProt Q8IBE8)
T1 construct: PfEBA-175 of P. falciparum, region II; The pRE4 vector supplies the signal and membrane anchor for surface display (surmise); also called wildtype RII; source: HEK293T, transfected (pRE4 vector), on the cell surface; not shown: GFP, C-terminal, kept
Assay: immunostaining of cells or tissue; DBL proteins on the surface of transfected HEK293T cells, probed with 10 µg/ml R217 or R218, then Alexafluor-546 anti-mouse IgG1; fluorescence microscopy
Settings: one partner purified

| Binder | binding result |
| --- | --- |
| B1 | binds |
| B2 | binds |
